pIC50: −log10 of the molar value.

By pIC50 is commonly meant −log10 of the IC50, conventionally taken in molar units.

The target in this assay is HLA-A*02:01. Nature of the assay: IEDB peptide-MHC binding, purified MHC/competitive/radioactivity; ≥ and ≤ were set here for values at or beyond the usual limits of such assays. The settings on record: source organism: Homo sapiens.

As for FLPWHRLFLL, the pIC50 is 6.69.
For FLCWGPFFL, the pIC50 was 7.41.
The same measure for WLLGAAMVGA: 7.49; for VVMGTLVAL: 7.18.
On to VLTALLAGL, for which the negative logarithm of the IC50 (pIC50) is 7.09.
On to VMGTLVALV, for which the pIC50 was 7.56.
RLLGSLNST: the pIC50 was 6.78.
Consider ALLAGLVSL, for which the pIC50 is 7.12.
With SLHNLVHSFL, the negative logarithm of the IC50 (pIC50) was 6.58.
The same measure for FLLRWEQEI: 7.59.
The same measure for FLRNQPLTFA: 6.86; for YVITTQHWL: 6.98; for FLPWHRLFL: 6.95.
The same measure for SVMDPLIYA: 7.08; for AVIGALLAV: 7.75.
Consider RIWSWLLGA, for which the negative logarithm of the IC50 (pIC50) was 7.00.
To RLMKQDFSV belongs 7.33; to SLDDYNHLV, 7.58; to YAIDLPVSV, 7.81.
To HLAVIGALL belongs 6.97.
The same measure for NMVPFFPPV: 8.41.
Take LLAGLVSLL: the pIC50 is 7.02.

The values are drawn from the Immune Epitope Database (IEDB).
